In patent publication US20260139240A1 (GRIFFITH UNIVERSITY, published 2026):

Biological target: T1, Wild type SubB (subtilase cytotoxin B subunit) (Escherichia coli, UniProt Q6EZC3 24-141)
T1 construct: also called SubB WT
Experiment: SPR (Biacore […]), […], single cycle kinetics

B1: Bovine α1-acid glycoprotein (AGP) (other)
chain: QSPECANLMTVAPITNATMDLLSGKWFYIGSAFRNPEYNKSARAIQAAFFYLEPRHAEDKLITREYQTIEDKCVYNCSFIKIYRQNGTLSKVESDREHFVDLLLSKHFRTFMLAASWNGTKNVGVSFYADKPEVTQEQKKEFLDVIKCIGIQESEIIYTDEKKDACGPLEKQHEEERKKETEAS
notes: mature; also called Bovine α1-AGP; bovine AGP
**Q.** Which Kd does the source give for B1 here?
**A.** Its Kd is 156 nM.
